According to paper PMC4845099:

Tested on: Cc1cc(=O)oc2cc(NC(=O)CNC(=O)CNC(=O)[C@H](CCCNC(=N)N)NC(=O)[C@H](CC(C)C)NC(=O)[C@H](CCCNC(=N)N)NC(=O)OCc3ccccc3)ccc12
Assay: purified protein, by the assay type
Conditions: pH 7.5

## MERS-PLpro (Betacoronavirus England 1)
  Km: 142 µM
  kcat/Km: 18000 M⁻¹ s⁻¹
